The test system of the data set is H3/H4 (FM label on H4 C71) (Xenopus laevis). The data set can be described thus: EMSA. The settings on record: 0.2 uM H3/H4, 0.4 uM DNA, no chaperone, disome and tetrasome, EMSA deposition: 10 mM Tris, 150 mM NaCl, 0.5 mM TCEP, pH 8.0, on ice, 0.2x TBE native gel, FRET: 10 mM Tris pH 7.5, 150 mM KCl, 2 mM MgCl, 1% glycerol. (A gel shift assay detects complexes by their altered migration in electrophoresis.)

As for 80 bp 601 DNA, the binding signal came to 44 % tetrasomes.

For the origin of these results see article PMC3526290.
